Measured values from publication doi:10.1101/2021.12.30.474394.

B1: DN Siah1C75S (enzyme)
chain: MSRQTATALPTGTSKCPPSQRVPALTGTTASNNDLASLFECPVCFDYVLPPILQCQSGHLVCSNCRPKLTCCPTSRGPLGSIRNLAMEKVANSVLFPCKYASSGCEITLPHTEKADHEELCEFRPYSCPCPGASCKWQGSLDAVMPHLMHQHKSITTLQGEDIVFLATDINLPGAVDWVMMQSCFGFHFMLVLEKQEKYDGHQQFFAIVQLIGTRKQAENFAYRLELNGHRRRLTWEATPRSIHEGIATAIMNSDCLVFDTSIAQLFAENGNLGINVTISMC
B2: WT Siah2 (enzyme)
chain: MSRPSSTGPSANKPCSKQPPPQPQHTPSPAAPPAAATISAAGPGSSAVPAAAAVISGPGGGGGAGPVSPQHHELTSLFECPVCFDYVLPPILQCQAGHLVCNQCRQKLSCCPTCRGALTPSIRNLAMEKVASAVLFPCKYATTGCSLTLHHTEKPEHEDICEYRPYSCPCPGASCKWQGSLEAVMSHLMHAHKSITTLQGEDIVFLATDINLPGAVDWVMMQSCFGHHFMLVLEKQEKYEGHQQFFAIVLLIGTRKQAENFAYRLELNGNRRRLTWEATPRSIHDGVAAAIMNSDCLVFDTAIAHLFADNGNLGINVTISTCCP

Assays:
mutant CycT14MUT = mutant CycT14MUT (UniProt O60563); assay: co-IP
mutant CycT14MUT(280) = mutant CycT14MUT(280) (UniProt O60563); assay: co-IP

Binder | fold change of co-IP against WT CycT1 (mutant CycT14MUT) [fold] | fold change of co-IP against WT CycT1(280) (mutant CycT14MUT(280)) [fold]
B1 | 5.7 | 5.1
B2 | 8.3 | 8.9
